Target: PME crude extract of Arabidopsis thaliana stem (Arabidopsis thaliana)
Assay: cell-based or functional assay

recombinant GhPMEI39 protein (pColdTF-GhPMEI39 fusion protein with 6xHis-Tag, expressed in Escherichia coli BL21 (DE3))
PME enzyme activity in the reaction solution (pectin / bromothymol blue, OD 620 nm) at PME:GhPMEI39 1:2: 24%

From US20240092842A1
